Measurements published in the supplement of paper PMC10567573.

B1: SPOPL (parent)
chain: PDDKLTLFCEVSVVQDSVNISGHT
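Note: lentivirally expressed fusions sorted by FACS into six bins by GFP to DsRed ratio, PSI derived from sequencing read proportions per bin multiplied by bin number.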

Variants of: B1
Experiment: protein stability index of a GFP-peptide fusion (GPS, HEK-293T) (PSI 1-6); higher = more stable
Details: c terminus: a fixed tail appended
With PDDKLTLFCEVGVVQDSVNISGHT [S12G] the protein stability index was 1.94.
For PDDKLTLFCEVCVVQDSVNISGHT [S12C], the protein stability index was 2.73.
In the case of PDDKLTLFCEVEVVQDSVNISGHT [S12E], the protein stability index is reported as 2.23.
PDDKLTLFCEVWVVQDSVNISGHT [S12W] showed a protein stability index of 1.98.
In the case of PDDKLTLFCEVAVVQDSVNISGHT [S12A], the protein stability index is reported as 3.08.
With PDDKLTLFCEVHVVQDSVNISGHT [S12H] the protein stability index was 1.71.
Work on PDDKLTLFCEVMVVQDSVNISGHT [S12M] yielded a protein stability index of 1.79.
In the case of PDDKLTLFCEVTVVQDSVNISGHT [S12T], the protein stability index is reported as 1.71.
PDDKLTLFCEVLVVQDSVNISGHT [S12L] showed a protein stability index of 2.1.
For PDDKLTLFCEVQVVQDSVNISGHT [S12Q], the protein stability index was 1.73.
PDDKLTLFCEVVVVQDSVNISGHT [S12V] gave a protein stability index of 2.53.
For PDDKLTLFCEVDVVQDSVNISGHT [S12D], the protein stability index was 3.66.
Work on PDDKLTLFCEVKVVQDSVNISGHT [S12K] yielded a protein stability index of 2.
With PDDKLTLFCEVNVVQDSVNISGHT [S12N] the protein stability index was 2.79.
PDDKLTLFCEVPVVQDSVNISGHT [S12P] gave a protein stability index of 3.81.
For PDDKLTLFCEVRVVQDSVNISGHT [S12R], the protein stability index was 2.32.
Variant PDDKLTLFCEVFVVQDSVNISGHT [S12F] has a protein stability index of 2.22.
With PDDKLTLFCEVIVVQDSVNISGHT [S12I] the protein stability index was 2.11.
In the case of PDDKLTLFIEVSVVQDSVNISGHT [C9I], the protein stability index is reported as 3.05.
Variant PDDKLTLFVEVSVVQDSVNISGHT [C9V] has a protein stability index of 3.85.
In the case of PDDKLTLFFEVSVVQDSVNISGHT [C9F], the protein stability index is reported as 2.35.
Variant PDDKLTLFYEVSVVQDSVNISGHT [C9Y] has a protein stability index of 2.07.
With PDDKLTLFEEVSVVQDSVNISGHT [C9E] the protein stability index was 4.47.
Work on PDDKLTLFPEVSVVQDSVNISGHT [C9P] yielded a protein stability index of 4.91.
PDDKLTLFMEVSVVQDSVNISGHT [C9M] showed a protein stability index of 2.13.
With PDDKLTLFAEVSVVQDSVNISGHT [C9A] the protein stability index was 3.47.
Work on PDDKLTLFLEVSVVQDSVNISGHT [C9L] yielded a protein stability index of 3.25.
For PDDKLTLFWEVSVVQDSVNISGHT [C9W], the protein stability index was 2.62.
Variant PDDKLTLFTEVSVVQDSVNISGHT [C9T] has a protein stability index of 3.83.
Variant PDDKLTLFKEVSVVQDSVNISGHT [C9K] has a protein stability index of 4.34.
With PDDKLTLFGEVSVVQDSVNISGHT [C9G] the protein stability index was 4.42.
PDDKLTLFQEVSVVQDSVNISGHT [C9Q] gave a protein stability index of 4.21.
In the case of PDDKLTLFDEVSVVQDSVNISGHT [C9D], the protein stability index is reported as 4.71.
Variant PDDKLTLFSEVSVVQDSVNISGHT [C9S] has a protein stability index of 4.52.
With PDDKLTLFNEVSVVQDSVNISGHT [C9N] the protein stability index was 4.34.
In the case of PDDKLTLFHEVSVVQDSVNISGHT [C9H], the protein stability index is reported as 4.09.
With PDDKLTLFREVSVVQDSVNISGHT [C9R] the protein stability index was 4.54.
PDDALTLFCEVSVVQDSVNISGHT [K4A] showed a protein stability index of 1.89.
With PDDSLTLFCEVSVVQDSVNISGHT [K4S] the protein stability index was 2.23.
Work on PDDFLTLFCEVSVVQDSVNISGHT [K4F] yielded a protein stability index of 2.19.
In the case of PDDELTLFCEVSVVQDSVNISGHT [K4E], the protein stability index is reported as 2.32.
Work on PDDRLTLFCEVSVVQDSVNISGHT [K4R] yielded a protein stability index of 1.79.
With PDDHLTLFCEVSVVQDSVNISGHT [K4H] the protein stability index was 1.95.
For PDDTLTLFCEVSVVQDSVNISGHT [K4T], the protein stability index was 1.53.
PDDNLTLFCEVSVVQDSVNISGHT [K4N] gave a protein stability index of 1.98.
Variant PDDLLTLFCEVSVVQDSVNISGHT [K4L] has a protein stability index of 2.39.
PDDPLTLFCEVSVVQDSVNISGHT [K4P] gave a protein stability index of 2.27.
Variant PDDCLTLFCEVSVVQDSVNISGHT [K4C] has a protein stability index of 1.56.
Work on PDDGLTLFCEVSVVQDSVNISGHT [K4G] yielded a protein stability index of 2.12.
For PDDYLTLFCEVSVVQDSVNISGHT [K4Y], the protein stability index was 2.26.
Variant PDDDLTLFCEVSVVQDSVNISGHT [K4D] has a protein stability index of 2.81.
With PDDMLTLFCEVSVVQDSVNISGHT [K4M] the protein stability index was 1.58.
Work on PDDILTLFCEVSVVQDSVNISGHT [K4I] yielded a protein stability index of 1.48.
Variant PDDQLTLFCEVSVVQDSVNISGHT [K4Q] has a protein stability index of 2.16.
Work on PDDKVTLFCEVSVVQDSVNISGHT [L5V] yielded a protein stability index of 1.81.
PDDKATLFCEVSVVQDSVNISGHT [L5A] gave a protein stability index of 3.66.
In the case of PDDKTTLFCEVSVVQDSVNISGHT [L5T], the protein stability index is reported as 3.33.
Variant PDDKHTLFCEVSVVQDSVNISGHT [L5H] has a protein stability index of 3.96.
In the case of PDDKQTLFCEVSVVQDSVNISGHT [L5Q], the protein stability index is reported as 3.73.
With PDDKYTLFCEVSVVQDSVNISGHT [L5Y] the protein stability index was 2.28.
PDDKSTLFCEVSVVQDSVNISGHT [L5S] showed a protein stability index of 3.63.
PDDKRTLFCEVSVVQDSVNISGHT [L5R] gave a protein stability index of 3.85.
For PDDKDTLFCEVSVVQDSVNISGHT [L5D], the protein stability index was 4.41.
PDDKFTLFCEVSVVQDSVNISGHT [L5F] showed a protein stability index of 1.52.
Work on PDDKMTLFCEVSVVQDSVNISGHT [L5M] yielded a protein stability index of 2.21.
Work on PDDKKTLFCEVSVVQDSVNISGHT [L5K] yielded a protein stability index of 3.82.
PDDKCTLFCEVSVVQDSVNISGHT [L5C] gave a protein stability index of 2.88.
PDDKETLFCEVSVVQDSVNISGHT [L5E] gave a protein stability index of 3.9.
PDDKWTLFCEVSVVQDSVNISGHT [L5W] showed a protein stability index of 1.26.
Work on PDDKITLFCEVSVVQDSVNISGHT [L5I] yielded a protein stability index of 1.88.
Work on PDDKNTLFCEVSVVQDSVNISGHT [L5N] yielded a protein stability index of 3.95.
With PDDKPTLFCEVSVVQDSVNISGHT [L5P] the protein stability index was 4.1.
PDDKGTLFCEVSVVQDSVNISGHT [L5G] gave a protein stability index of 3.07.
With PDDKLTLFCERSVVQDSVNISGHT [V11R] the protein stability index was 3.67.
In the case of PDDKLTLFCEISVVQDSVNISGHT [V11I], the protein stability index is reported as 1.95.
For PDDKLTLFCENSVVQDSVNISGHT [V11N], the protein stability index was 4.78.
With PDDKLTLFCEYSVVQDSVNISGHT [V11Y] the protein stability index was 2.46.
PDDKLTLFCEKSVVQDSVNISGHT [V11K] showed a protein stability index of 4.85.
With PDDKLTLFCETSVVQDSVNISGHT [V11T] the protein stability index was 4.26.
Variant PDDKLTLFCEESVVQDSVNISGHT [V11E] has a protein stability index of 4.81.
PDDKLTLFCEMSVVQDSVNISGHT [V11M] showed a protein stability index of 2.77.
PDDKLTLFCEGSVVQDSVNISGHT [V11G] showed a protein stability index of 4.76.
In the case of PDDKLTLFCEWSVVQDSVNISGHT [V11W], the protein stability index is reported as 2.14.
In the case of PDDKLTLFCECSVVQDSVNISGHT [V11C], the protein stability index is reported as 3.34.
With PDDKLTLFCEHSVVQDSVNISGHT [V11H] the protein stability index was 4.28.
Work on PDDKLTLFCEFSVVQDSVNISGHT [V11F] yielded a protein stability index of 2.61.
Work on PDDKLTLFCESSVVQDSVNISGHT [V11S] yielded a protein stability index of 4.47.
PDDKLTLFCEPSVVQDSVNISGHT [V11P] gave a protein stability index of 4.58.
Variant PDDKLTLFCEDSVVQDSVNISGHT [V11D] has a protein stability index of 4.64.
PDDKLTLFCELSVVQDSVNISGHT [V11L] showed a protein stability index of 1.93.
Variant PDDKLTLFCEQSVVQDSVNISGHT [V11Q] has a protein stability index of 4.62.
PDDKLTLFCEASVVQDSVNISGHT [V11A] gave a protein stability index of 4.34.
PDDKLTLMCEVSVVQDSVNISGHT [F8M] gave a protein stability index of 2.86.
For PDDKLTLNCEVSVVQDSVNISGHT [F8N], the protein stability index was 4.86.
